Data from PMC3060121, “The Peroxisomal Targeting Signal 1 in sterol carrier protein 2 is autonomous and essential for receptor recognition” (BMC Biochemistry, 2011).

T1: Gal4DB-preSCP2 (1-143), two-hybrid fusion (human, UniProt P22307-2 1-143)
T1 construct: sterol carrier protein 2, human, residues 1-143, printed length 143; numbers count on: preSCP2 of 143 residues; In pPC97 between SalI and NotI; source: yeast two-hybrid fusion (S. cerevisiae PCY2)
T1 sequence (looked up): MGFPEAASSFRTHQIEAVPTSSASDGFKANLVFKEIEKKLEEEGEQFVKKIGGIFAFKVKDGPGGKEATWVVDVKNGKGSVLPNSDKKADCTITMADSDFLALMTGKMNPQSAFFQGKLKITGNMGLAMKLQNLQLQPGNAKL

T2: Gal4DB-mSCP2 (21-143), two-hybrid fusion (human, UniProt P22307-2 21-143)
T2 construct: sterol carrier protein 2, human, residues 21-143; numbers count on: preSCP2 of 143 residues; In pPC97 between SalI and NotI; source: yeast two-hybrid fusion (S. cerevisiae PCY2)
T2 sequence (looked up): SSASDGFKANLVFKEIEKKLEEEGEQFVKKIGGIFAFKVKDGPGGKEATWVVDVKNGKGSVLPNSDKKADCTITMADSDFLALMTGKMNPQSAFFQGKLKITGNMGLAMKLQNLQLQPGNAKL

B1: mature sterol carrier protein 2, mSCP2 (21-143) (natural protein, human, UniProt P22307-2 21-143, looked up)
chain: T2 sequence (looked up)
notes: numbers count on: preSCP2 of 143 residues; The His6-GST fusion is cleavable with TEV protease
B2: sterol carrier protein 2 with presequence, preSCP2 (1-143) (natural protein, human, UniProt P22307-2 1-143, looked up)
chain: T1 sequence (looked up)
notes: numbers count on: preSCP2 of 143 residues; The His6-GST fusion is cleavable with TEV protease; also called full-length SCP2
B3: PTS1 hexapeptide PGNAKL derived from the C-terminus of SCP2 (peptide)
peptide: PGNAKL
notes: C-terminal six residues of sterol carrier protein 2, human; numbers count on: preSCP2 of 143 residues; Free C-terminal carboxylate (PGNAKL-CO2-) as printed in the background; also called PGNAKL-CO2-; source: synthetic peptide (Sigma-Aldrich, > 95% purity)
B4: Gal4AD-Pex5p(C) (residues 315-639) R608W, two-hybrid fusion (domain or fragment)
chain: not shown
notes: also called Pex5p(C) R608W; source: yeast two-hybrid fusion (S. cerevisiae PCY2)

Columns and labels:
[1] = target: T3, human Pex5p(C) (residues 315-639) D624W (human, UniProt P50542 315-639, D624W, biotin (EZ-Link Sulfo-NHS-Biotinylation Kit, between 1 and 2 moles of biotin per mole) in the Octet RED96 assay only); assay: ITC; MicroCal VP-ITC; Pex5p(C) wild-type or mutant titrated with mSCP2 or the peptide PGNAKL; as described in ref 4; details: both partners purified
T3 construct: Made by QuikChange on the His6-GST Pex5p(C) plasmid; also called Pex5p(C) D624W

[2] = target: T4, human Pex5p(C), cargo-binding domain of Pex5p (residues 315-639), wild-type (human, UniProt P50542 315-639, biotin (EZ-Link Sulfo-NHS-Biotinylation Kit, between 1 and 2 moles of biotin per mole) in the Octet RED96 assay only); assay: as above; details: both partners purified
T4 construct: The His6-GST fusion is cleavable with TEV protease; also called Pex5p(C) WT; HsPex5p(C)

[3] = target: T5, human Pex5p(C) (residues 315-639) R608W (human, UniProt P50542 315-639, R608W, biotin (EZ-Link Sulfo-NHS-Biotinylation Kit, between 1 and 2 moles of biotin per mole) in the Octet RED96 assay only); assay: as above; details: both partners purified
T5 construct: Made by QuikChange on the His6-GST Pex5p(C) plasmid; also called Pex5p(C) R608W

[4] = target: T3, human Pex5p(C) (residues 315-639) D624W; assay: BLI; Octet RED96; biotinylated Pex5p(C) immobilised on streptavidin sensors at 20 μg/mL; PBS, 1000 rpm; association 1800 s, dissociation 1800 s; local fits, 1:1 model; details: both partners purified
[5] = target: T6, human Pex5p(C) (residues 315-639) S600W, infantile Refsum disease mutant (human, UniProt P50542 315-639, S600W, biotin (EZ-Link Sulfo-NHS-Biotinylation Kit, between 1 and 2 moles of biotin per mole)); assay: as above; details: both partners purified
T6 construct: also called Pex5p(C)S600W

[6] = target: T4, human Pex5p(C), cargo-binding domain of …; assay: as above; details: both partners purified
[7] = target: T5, human Pex5p(C) (residues 315-639) R608W; assay: as above; details: both partners purified
[8] = target: T1, Gal4DB-preSCP2 (1-143), two-hybrid …; assay: two-hybrid; GAL4 based, S. cerevisiae PCY2; Gal4AD-Pex5p(C) with Gal4DB-SCP2 variants; β-galactosidase activity (A420 per mg protein per min), mean of three measurements; details: partners not purified
[9] = target: T2, Gal4DB-mSCP2 (21-143), two-hybrid fusion; assay: as above; details: partners not purified

Binder	Kd [1] [nM]	dH [1] [kJ/mol]	stoichiometry N [1]	Kd [2] [nM]	dH [2] [kJ/mol]	stoichiometry N [2]	Kd [3] [nM]	dH [3] [kJ/mol]	stoichiometry N [3]	koff [4] [s⁻¹]	kon [4] [M⁻¹ s⁻¹]	koff [5] [s⁻¹]	kon [5] [M⁻¹ s⁻¹]	koff [6] [s⁻¹]	kon [6] [M⁻¹ s⁻¹]	koff [7] [s⁻¹]	kon [7] [M⁻¹ s⁻¹]	fold reduction of the two-hybrid interaction against wild-type Pex5p(C) [8] [fold]	fold reduction of the two-hybrid interaction against wild-type Pex5p(C) [9] [fold]
B1	45 ± 8	-55.6	0.41 ± 0.08	95 ± 21	-43.4	0.93 ± 0.03	179 ± 19	-71.7	0.61 ± 0.06	0.00015	11000	6e-05	6500	5.5e-05	23000	7.3e-05	7200		
B2										8.6e-05	13000	5.1e-05	7300	7.9e-05	35000	5e-05	9000		
B3	763	-54.7	0.49 ± 0.01	547 ± 6	-42.5	0.94 ± 0.02	635 ± 25	-51.6	0.81 ± 0.01										
B4																		3	3
